Measured values: paper PMC4695023, “Pancreatic adenocarcinoma upregulated factor serves as adjuvant by activating dendritic cells through stimulation of TLR4” (Oncotarget, 2015)

Key:
[1] = target: T1, Toll-like receptor 2 (TLR2), from DC lysate (mouse (endogenous in bone …, UniProt Q9QUN7 25-784)); assay: BLI; BLItz system; Protein A sensor loaded with TLR2 or TLR4 antibody (0.1 mg/mL), then DC lysate (0.3 mg/mL, 150 sec); association with purified PAUF or BSA (0.3 mg/mL) for 150 sec, dissociation in PBS for 150 sec; KD from BLItz pro software as a non-advanced kinetics experiment; settings: one partner purified
T1 construct: TLR2, endogenous in dendritic cells; captured from DC lysate with an anti-mouse CD282 (TLR2) antibody on a Protein A sensor; Other lysate proteins may have been captured along with TLR2; also called CD282; source: endogenous, DC lysate, captured on the sensor by anti-mouse CD282 (TLR2) antibody
T1 sequence (Q9QUN7 25-784): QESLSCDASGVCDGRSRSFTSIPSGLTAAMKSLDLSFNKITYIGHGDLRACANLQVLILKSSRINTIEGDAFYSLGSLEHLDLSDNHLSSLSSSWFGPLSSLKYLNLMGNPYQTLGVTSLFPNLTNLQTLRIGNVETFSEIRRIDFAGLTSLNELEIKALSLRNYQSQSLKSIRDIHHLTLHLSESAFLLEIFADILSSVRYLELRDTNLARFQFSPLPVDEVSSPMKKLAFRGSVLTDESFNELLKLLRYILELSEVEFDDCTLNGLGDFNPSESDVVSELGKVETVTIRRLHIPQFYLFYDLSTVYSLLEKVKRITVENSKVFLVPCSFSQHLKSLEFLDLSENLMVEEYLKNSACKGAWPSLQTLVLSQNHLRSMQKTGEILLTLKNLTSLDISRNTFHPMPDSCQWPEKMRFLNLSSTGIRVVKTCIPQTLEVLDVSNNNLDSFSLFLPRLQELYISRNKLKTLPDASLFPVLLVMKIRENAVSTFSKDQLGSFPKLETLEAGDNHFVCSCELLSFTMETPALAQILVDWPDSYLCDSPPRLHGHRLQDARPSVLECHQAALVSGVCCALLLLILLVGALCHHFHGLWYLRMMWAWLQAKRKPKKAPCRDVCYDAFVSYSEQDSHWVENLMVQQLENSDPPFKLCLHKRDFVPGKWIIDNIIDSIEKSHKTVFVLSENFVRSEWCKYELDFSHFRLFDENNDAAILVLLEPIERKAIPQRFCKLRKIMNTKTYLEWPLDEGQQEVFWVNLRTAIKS

[2] = target: T2, Toll-like receptor 4 (TLR4), from DC lysate (mouse (endogenous in bone …, UniProt Q9QUK6 26-835)); assay: as above; settings: one partner purified
T2 construct: TLR4, endogenous in dendritic cells; captured from DC lysate with a TLR4/CD284 antibody on a Protein A sensor; Other lysate proteins (e.g. MD-2) may have been captured along with TLR4 (surmised); also called CD284; source: endogenous, DC lysate, captured on the sensor by TLR4/CD284 antibody (IMGENEX)
T2 sequence (looked up): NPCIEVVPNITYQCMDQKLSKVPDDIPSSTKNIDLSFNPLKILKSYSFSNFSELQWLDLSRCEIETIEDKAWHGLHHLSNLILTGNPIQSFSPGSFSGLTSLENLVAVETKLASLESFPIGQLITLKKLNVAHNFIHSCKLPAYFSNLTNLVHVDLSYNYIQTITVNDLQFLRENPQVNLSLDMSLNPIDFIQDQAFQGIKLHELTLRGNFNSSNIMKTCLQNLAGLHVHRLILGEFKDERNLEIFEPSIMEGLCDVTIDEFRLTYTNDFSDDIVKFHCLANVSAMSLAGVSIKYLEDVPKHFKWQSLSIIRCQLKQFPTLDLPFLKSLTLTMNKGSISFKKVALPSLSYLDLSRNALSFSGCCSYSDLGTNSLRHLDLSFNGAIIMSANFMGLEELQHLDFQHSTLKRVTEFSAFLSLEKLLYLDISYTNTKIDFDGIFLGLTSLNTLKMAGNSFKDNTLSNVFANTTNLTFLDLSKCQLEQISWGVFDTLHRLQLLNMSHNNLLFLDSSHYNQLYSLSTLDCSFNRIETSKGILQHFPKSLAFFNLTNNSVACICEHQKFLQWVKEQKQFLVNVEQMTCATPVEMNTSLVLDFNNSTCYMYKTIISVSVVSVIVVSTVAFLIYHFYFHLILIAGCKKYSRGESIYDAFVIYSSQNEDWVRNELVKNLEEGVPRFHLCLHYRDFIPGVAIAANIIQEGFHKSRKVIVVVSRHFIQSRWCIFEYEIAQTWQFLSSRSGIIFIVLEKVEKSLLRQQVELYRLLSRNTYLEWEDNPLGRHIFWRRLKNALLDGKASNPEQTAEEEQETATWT

B1: Pancreatic adenocarcinoma upregulated factor (PAUF), recombinant, Fc removed (ligand, human, UniProt Q96DA0 17-172, looked up)
chain: GKMYGPGGGKYFSTTEDYDHEITGLRVSVGLLLVKSVQVKLGDSWDVKLGALGGNTQEVTLQPGEYITKVFVAFQAFLRGMVMYTSKDRYFYFGKLDGQISSAYPSQEGQVLVGIYGQYQLLGIKSIGFEWNYPLEEPTTEPPVNLTYSANSPVGR
notes: As a secreted protein it should lack its signal peptide (surmised); also called purified PAUF; PAUF protein; source: CHO/dhFr- cells, transfected with pcDNA3.1(+)-PAUF-Fc; secreted PAUF-Fc purified using Protein A resin, then Fc removed
Binder B1 has a Kd [1] of 10.6 nM and a Kd [2] of 145 nM.
